According to the nanobody polyreactivity screen of Harvey et al. (2022):

Test: yeast display, Sf9 membrane polyspecificity reagent, FACS + sequencing; frameworks hold sequencing errors
Outline: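 In a synthetic yeast display library (Saccharomyces cerevisiae BJ5465), nanobody expression was induced with galactose for 36–48 hours. FACS gates were set low and high (top ~1%) using anti-HA fluorescence for expression and streptavidin fluorescence for binding of the Sf9 membrane reagent. Each polyreactivity label is drawn from the gate of origin.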

Sequence | polyreactivity (PSR sort gate)
QVQLVESGGGIVQAGGSLRLSCAASGFTFRTYTQGWYRQAPGKERELVAAIRSSGGGTYYADSVKGRFTISRDNAKNTVYLQMNSLKPEDTAVYYCIAVRYNSVGYDFWGQGTQVTVSS | high polyreactivity
QVQLVESGGGLVQAGGSLRLSCAASGLTFGGYAMGWYRQAPGKERELVAAISRSGGSTYYADSVKGRFTISRDNAKNTVYLQMNSLQPEDTAVYYCNGGRGTKYDYWGQGTQVTVSS | low polyreactivity
QVQLVESGGGLVQAGGSHRLSCAASGRIFRPNAMGWYRQAPGKERELVASISQSGGSTYADSVKGRFTISRDNAKNTVYLQMNSLKPEDTAVYYCAKVQGWRYQIYDYWGQGTQVTVSS | low polyreactivity
QVQLVESGGGLVQAGGSLRLSCAASGFIFLETDKGWYRQAPGKERELVASINSGTNTYYADSLKGRFTISRDNAKNTVYVEMNSLKPEDSAVYYCNADDAYLVTQPYDDNYDYWGQGTQVTVSS | low polyreactivity
QVQLVESGGGLDQAGGSLRLSCAASGRTFYSYAMGWYRQAPGKERELVAAITSGGRTKYADSVKGRFTISRDNAKNTVYLQMNSLKAEDTAVYYCAADRVSYYTTPYDYWGQGTQVTVSS | high polyreactivity
QVQLVESGGGLVQAGGSLRLICAASGSIFSYYAMGWYIKAPGKERELVAVINSGGRTNYADSVKGRFTISRDNAKNTVYVQMNSLKPEDTAVYYCAAQCYFVERAGRYYRGEYWGQGTQVTVSS | high polyreactivity
QVQLVESGGGLVQAGGSLRLSCAASGSIFWVYAMGWYRQAPGKERELVAAISNSGSTNYADSVKGRFTISRDNAKNTVYLQMNSLKPEDTAVYYCAKDSLVDHVGGYDYWGQGTQVTVSS | low polyreactivity
QVQLVESGGGLVQAGGSLRLSCAASGRIFTAYAMGWYRQAPGKERELVARISKRGGSTYYADSVKGRFTISRDNAKNTVYLQMNSLKPEDTAVYYCAKSSWTFGAYNYWGQGTQVTVSS | high polyreactivity
QVQLVESGGGLVQAGGSLRLSCAASGRIFGVNAMGWYRQAPGKERELVAAIFSGGSTYYADSVKGRFTISRDNAKNTVYLQMNSLKPEDTAGYYCAARFARYDWSMYYWGQGTQVTVSS | low polyreactivity
QVQLVESGGGLVQAGGSLRLSCAASGFTFAVYDMGWYRQAPGKERELVASITGDSTNYADSVKGRFTISRDNAKNTVYLQMNSLKPEDTAVYYCAAEYVPYYEYESWGQGTQVTVSS | low polyreactivity
QVQLVESGGGLVQAGGSLRLSCAASGSIFSKYAMGWYRQAPGKEWEVVAAIRSIGGSTYYADSVMGRFTISRDNAKNTVYLQMNSRNPDDTAVYYCAARFWPAYSGWYENWGQGTQVTVSS | low polyreactivity
QVQLVESGGGLVQAGGSLRLSCAASGNTFNSYAMGWYRQAPGKERELVAAIRWRGTSTYYADSVKGRFTISRDTAKNTVYLQMNSLKPEDTAVYYCAADVVRSNFYGTFLYDYDYWGQGTQVTVSS | low polyreactivity
QVQLVESGGGLVQAGGSLRLSCAASGSTFIYNAMGWYRQAPGKERELVAAITDGSTKYADSVKGRFTISRDNAKNTVYLQMNSLKPEDTAVYYCNAYVWRWRYDSWGQGTQVTVSS | low polyreactivity
QVQLVESGAGLVQAGGSLRLSCAASGRTFINNVMGWYRQAPGKERELVAAINSGSSTKYADSVKRRFTISRDNAKNTVYLQMNSLKPEDTAVYYCAAELWYFSEIGRMDYWGQGTIVTVSS | high polyreactivity
QVQLVESGRGLVQAGGSLRLSCAASGSIFGTNTMGWYRQAPGKERELVAAISWSGGSTYYADSVKGRFTISRDNAKNSVYLHMNSLKPEDTAVYYCNAVYPSVYPVSTRYYWGQGTQVTVSS | high polyreactivity
QVQLVESGGGLVQAGGSLRLSSAASGRTFQYYAMGWYRQAPGKERELVAAITSGGSTYYADSVKGRFTISRDNAKNTVSLQMNSLKPEDTAVYYCAATFYYSGHDDYWGQGTQVTVSS | low polyreactivity
QVQLVESGGGLVQAGGSLRLSCAASGFTFLRYAMGWYRQAPGKERELVAAITGGGNTNYADSVKGRFTISRDNAKNTVYLQMNSLKPEDTAVYYCNARRRYWPYREDYWGQGTQVTVSS | high polyreactivity
QVQLVESGGGLVQAGGSLRLSCAASGITFYRYTMGWYRQAPGKERELVAAIRSGGSTYYADSVKGRFTISRDNAKNTVYLQMNSLKPEDTAVYYCAAPYYRYNVPYYGGNGGDYWGQGTQVTVSS | high polyreactivity
QVQIVESGGGLVQAGGSLRLSCAASGLTFEWYTMGWYRQAPGKERELVAVITVSGSSTYYADSVKGRFTISRDNAKNTVYLQMNSLKPEDTAVYYCNADWSFYSYTLYDYWGQGTQVTVSS | low polyreactivity
QVQLVESGGGLVQAGGRLRLSCAASGSIYPDKAMGWYRQAPGKERELVAAIDKGTGSTNYADSVKGRFTISRDNAKITVNLQLNSLKPEDTAVYYCAKGWLTPRGGAWYDDYWGQGTQVTVSS | low polyreactivity
QVQLVESGGGLVQAGGSLRLSCAASGSIFPRNTMGWYRQAPGKEREFVAAITTTGSRTYYADSVKGRFTISRDNAKNTVYLQMNSLKPEDTAVYYCAATRRWYPTKLYGYWGQGTQVTVSS | high polyreactivity
QVQLVESGGGLVQAGGSQRLSCDSSGSTFRYYAMGWYRPAPGKQRELVAVITWNGGGTYYADSMKGRFTISRDNAKNNVYLHMNSLKPVDTAVYYCAADASLYTDEYDNWGLGTQVTVSS | low polyreactivity

Sequence | polyreactivity (PSR sort gate)
QVQLVESGGGLVQAGGSLRLSCAASGNIFDRYAMGWYRQAPGKERELVAGITWSGGSTYYADSVKGRFTISRDNAKNTVYLQMNSLKPEDTAVYYCGQANYYWGQGSQVTVSS | low polyreactivity
QVHLVESGGGLVQAGGSLRLSCAASASTLGSNTMGWYRQAPGKERELVATISRRGGSTYYADSVKGRFTISRDNAKYTVYLQMNSLKPADTAVYYCAARPVYKFGSWGQGTQVTVSS | high polyreactivity
QVQLVESGGGLVQAGGSLRFSCAASGRTITRYAMGWYRQAPGKERELVAAISKRGTRTYYADSVKGRFTISRDHAKNTVYLQMNSLKPADTAVYYCNGAGRWALYYHLYTGFDYWGQGTQVTVSS | high polyreactivity
QVQLVESGGGLVQAGGSLRLSCAASGFIFRKYAMGWYRQAPGKERELVAAITNGGSTYADSVKGRFTISRDNAKNTVYLQMNSLKPEDTAVYYCNARYRPRQRPEGGYWGQGTQVTVSS | high polyreactivity
QVQLVESGGGLVQAGGSLRLSCAASGLIFSRNAMGWYRQAPGKERELVAAISGGGGSTYYADSVKGRFTISRDNAKNTVYLQMNSLKPEDTAVYYCAAKGYWWRTPWIATYDYWGQGTQVTVSS | high polyreactivity
QVQLVESGGGIVQAGGSLRLSCAASGSTLRWNAMGWYRQAPGKERELVAAIRWSTGSTYYADSVKGRFTISRDNAKNTVYLQMNSLKPEDTAVYYCAARQGRARTPNDHNYWGQGTKVTVSS | high polyreactivity
QVQLVESGGGLVQAGGSLRLSCAASGGTLYTYAMGWYRQAPGKEWEFVAAITVSGGRTYYADSVKGRFTISRDNAKNTVYLLMNSLKPEDTAVYYCAARYWSWRSFKVDYWGQGTQVTVSS | high polyreactivity
QVQHVESWRGLVQAGGSLRLSCDASGSIIQIYAMGWYRQAPGKVRELVASITWSGGSPYYADSVKGRFTISRDNAKNTVYLQMNSLKPEDTAVFYCATDKLYGRTVRMDYWGQGTQVTVSS | low polyreactivity
QVQLVESGGGLVQAGGSLRLICAASGSTFDYYAMGWYRQAPGKERELVAAISRRGGNTYYADSVKGRFTISRDNAKNTVYLQMNSLKQEDTAVYYCAAQTYKWYDWGHGTQVTVSS | high polyreactivity
QVQLVESGGGLVQAGGSRRLSCAASGRFFSAYAMGWYRQAPGKDRELVAAITWSGANTDYADSVKGRFTISRDNANNTVYLQMNSLKPEDTAVYYCNASVGRDSAYDYWGQGTQVTVSS | low polyreactivity
QVQLVESGGGLVQAGGSLRLSCAASGSSTLMLMGWYRQAPGKERELVAVITSSGGRTYYADSVKGRFTISRDNAKNTVYLQMNSLKPEDTAVYYCNVDIGVYAYESDYWGQGTQVTVSS | low polyreactivity
QVQLVESGGGLVQAGGSLRLSCAASGSIFDDYVMGWYRQAPGKERELVAAIRSSGGRTYYADSVKGRFTISRDNAKNTVYLQMISLKPEDTAVYYCNAVTKHRQSVPYAYGYWGQGTQVTVSS | high polyreactivity
QVQLVESVGGLVQAGGSLRLSCAASGSNFRGYAMGWYRQAPGKERELVAAISWSGVSTYYADSVKGRFTISRDNAKNTVYLQMNSLKPEDTAVYDCAAGYSSAYLRFGYWGQGTQVTVSS | low polyreactivity
QVQLVESGGGLVQAGGSLRLSCAASGYTFEFNVMGWYRQAPGKERELVASIRWGSTSYADSVKGRFTISRDNAKNTVYLQMNSLKPEDTAVYYCAAVTYDYWGQGTQVTVSS | low polyreactivity
QVQLVESGGGLVQAGGSLRLSCAASGRTFVSNSMGWYRQAPGKERELVAAISSSGGSTYYADSVKGRFTISRDNEKNTVYLQMNILKPEETAVYYCANDPWYSKYRYDHWGQGTQVTVSS | high polyreactivity
QVQLVESGGGLVQAGGSLRLSCAASGRTLGVYTMGWYRQAPGKERELVATISWDGGITYYADSVKGRFTISRDNAKNTVYLQMNSLKPEDNAVYYCAAVDHSYGWMDYWGQGTQVTVSS | low polyreactivity
QVQLVDSGGGLVQAGGSLRLSCAASGSTFAPYAMGWSRQAPGKERELVAAISWGGGSTYYADSVKGRFTISRDNAKNTVYLQMNSLKPEDTAVYYCAADYAEYSAEWYEDWGQGTQVTVSS | high polyreactivity
QVQLEESGGGLVQAGGSRRLSCAASGSIFIANAMGWYRQAAGKEREFVAGISASGSSTYYADSVKVRFTISRDNAKNTVYLQMNILKPEDTAVNYCAAGSYYWGQGTQVTVSS | high polyreactivity
QVQLVESGGGLVHAGCSLRLSCAASGSTYVPYAMGWYRQAPGRERELVADISWSGGSTYYADSVKGRFTISRDNGKNTVFLQMNSLKPEDTAVYYCAATRTKGKFDYWGQGTQVTVSS | high polyreactivity
QVQLVESGGGLVQAGGSLRLSCAASGSTFIHNAMGWYRQAPGNERELVAAITSGGSTYYADSVKGRFTISRDNAMNTVYLQMNSLKPEDTAVYYCNRGSWRYSTMEYWGQGTLVTVSS | high polyreactivity
QVQLVESGGGLVQAGGSLRLSCAASGSIFHPYAMGWSRQAPGKERELVASISKRGGSTYYADSVKGRFTISRDNAKNTVYLQMNSLKPEDTAVYYCAKLYTIGYDYWGQGTQVTVSS | low polyreactivity
